# Source: paper PMC5415106
# T1: GST-Dpb11-wild-type, P47027
# T1 chain: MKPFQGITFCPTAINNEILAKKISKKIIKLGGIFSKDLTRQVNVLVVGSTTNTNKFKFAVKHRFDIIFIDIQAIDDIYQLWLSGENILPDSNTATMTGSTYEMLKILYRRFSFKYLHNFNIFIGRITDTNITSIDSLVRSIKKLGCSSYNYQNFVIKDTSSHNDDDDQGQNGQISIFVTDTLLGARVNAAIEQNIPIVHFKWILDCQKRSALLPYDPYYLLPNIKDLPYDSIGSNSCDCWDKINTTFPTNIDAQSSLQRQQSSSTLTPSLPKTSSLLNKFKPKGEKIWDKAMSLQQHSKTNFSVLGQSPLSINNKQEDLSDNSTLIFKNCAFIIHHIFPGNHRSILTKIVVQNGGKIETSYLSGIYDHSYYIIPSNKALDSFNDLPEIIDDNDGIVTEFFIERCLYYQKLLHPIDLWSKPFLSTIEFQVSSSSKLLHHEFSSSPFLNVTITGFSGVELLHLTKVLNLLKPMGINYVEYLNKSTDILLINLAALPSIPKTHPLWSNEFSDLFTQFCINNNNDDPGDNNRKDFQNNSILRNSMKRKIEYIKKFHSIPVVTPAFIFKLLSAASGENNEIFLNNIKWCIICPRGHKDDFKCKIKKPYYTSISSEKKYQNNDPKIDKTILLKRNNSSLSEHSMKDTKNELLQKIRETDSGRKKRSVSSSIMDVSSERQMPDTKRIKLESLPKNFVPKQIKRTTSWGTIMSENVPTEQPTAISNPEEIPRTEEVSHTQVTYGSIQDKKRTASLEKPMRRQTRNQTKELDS
# T2: Sld3 (protein of Fig 3D; the legend prints 'CDK-phosphorylated Sld2'), P53135
# T2 chain: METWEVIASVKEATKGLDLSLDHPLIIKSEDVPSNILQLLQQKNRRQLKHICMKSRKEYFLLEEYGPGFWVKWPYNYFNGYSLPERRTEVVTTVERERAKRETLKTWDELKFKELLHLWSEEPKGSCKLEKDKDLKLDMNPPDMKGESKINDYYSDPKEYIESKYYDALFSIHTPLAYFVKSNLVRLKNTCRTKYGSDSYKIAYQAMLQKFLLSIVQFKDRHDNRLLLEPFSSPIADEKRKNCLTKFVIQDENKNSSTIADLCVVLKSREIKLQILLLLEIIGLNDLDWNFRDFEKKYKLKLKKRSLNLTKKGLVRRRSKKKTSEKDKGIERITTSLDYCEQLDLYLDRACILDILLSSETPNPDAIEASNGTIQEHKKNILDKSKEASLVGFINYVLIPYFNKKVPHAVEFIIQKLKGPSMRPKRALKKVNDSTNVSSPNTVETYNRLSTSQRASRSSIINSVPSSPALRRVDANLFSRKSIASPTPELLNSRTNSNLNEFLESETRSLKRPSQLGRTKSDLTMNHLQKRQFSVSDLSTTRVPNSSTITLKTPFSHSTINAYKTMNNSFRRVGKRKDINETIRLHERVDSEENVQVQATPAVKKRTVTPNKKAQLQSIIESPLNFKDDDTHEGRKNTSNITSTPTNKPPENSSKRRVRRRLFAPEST
# T3: PKA-GINS, Q12488
# T3 chain 1: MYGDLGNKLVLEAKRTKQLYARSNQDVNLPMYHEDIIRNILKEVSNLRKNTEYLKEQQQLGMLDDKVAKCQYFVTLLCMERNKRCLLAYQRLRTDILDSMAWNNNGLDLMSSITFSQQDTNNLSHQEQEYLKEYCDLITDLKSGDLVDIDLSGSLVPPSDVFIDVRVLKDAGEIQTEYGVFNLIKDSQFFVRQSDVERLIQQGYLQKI
# T3 chain 2: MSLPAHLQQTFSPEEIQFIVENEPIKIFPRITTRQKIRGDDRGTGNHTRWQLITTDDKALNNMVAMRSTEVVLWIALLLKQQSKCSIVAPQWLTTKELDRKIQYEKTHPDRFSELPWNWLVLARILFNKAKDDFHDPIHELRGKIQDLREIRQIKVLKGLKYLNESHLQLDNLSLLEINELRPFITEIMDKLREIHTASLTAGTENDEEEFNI
# T3 chain 3: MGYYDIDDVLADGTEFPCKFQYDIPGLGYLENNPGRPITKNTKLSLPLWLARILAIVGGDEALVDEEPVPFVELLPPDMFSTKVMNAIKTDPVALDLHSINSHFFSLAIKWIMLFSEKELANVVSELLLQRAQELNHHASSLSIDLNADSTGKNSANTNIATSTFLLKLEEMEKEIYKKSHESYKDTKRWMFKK
# T3 chain 4: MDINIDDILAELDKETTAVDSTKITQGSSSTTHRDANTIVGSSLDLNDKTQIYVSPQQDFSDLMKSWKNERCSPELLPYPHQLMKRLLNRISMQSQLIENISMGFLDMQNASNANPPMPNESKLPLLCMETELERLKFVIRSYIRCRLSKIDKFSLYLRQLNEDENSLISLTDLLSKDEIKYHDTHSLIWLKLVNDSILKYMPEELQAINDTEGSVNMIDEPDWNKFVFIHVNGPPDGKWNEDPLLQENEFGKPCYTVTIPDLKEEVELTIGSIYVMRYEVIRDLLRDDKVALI
# Experiments:
# Experiment in all cases: GST pull-down, phosphorimaging
# Settings in all cases: chain shown with the change, 10 pmoles GST-Dpb11, read off a plot
# [1] = target: T1, GST-Dpb11-wild-type, P47027
# [2] = target: T2, Sld3 (protein of Fig 3D; the legend …)
# PKA-GINS, Q12488 = target: T3, PKA-GINS, Q12488
response ([1]; 1 pmole Sld2T84D input) [pmol],response ([1]; 3 pmoles Sld2T84D input) [pmol],response ([1]; 10 pmoles Sld2T84D input) [pmol],"response ([2]; 1 pmole CDK-Sld3 input, parent: est. 0.34) [pmol]","response ([2]; 3 pmoles CDK-Sld3 input, parent: est. 0.60) [pmol]","response ([2]; 10 pmoles CDK-Sld3 input, parent: est. 1.5) [pmol]","response (PKA-GINS, Q12488; 1 pmole GINS input, parent: est. 0.60) [pmol]","response (PKA-GINS, Q12488; 3 pmoles GINS input, parent: est. 1.4) [pmol]","response (PKA-GINS, Q12488; 10 pmoles GINS input, parent: est. 2.5) [pmol]",Binder
0.28,0.64,1.6,,,,,,,Sld2 T84D (protein) MYSFELDKLKIELKTWEHDFIDKNKREPTRDDIKSLRTVRQMYKQYSTLKKKQSLQRQKVDTQESVELPAHKKDHDEVVEIGPDPQVYGKAISIFDMNLSPIKPIYMTFTNNIDVNNDNSKTISNESSPRKTILLKSSPADRTLVAEPISSVKRQLNFQMLNASSTRTPTSSPCKNRNGKLVEIKKCSPTINPPLESGKPSGYYGPNSPLKLDEENIHLNISLNSSTKRRLQIAYPSLQKTPSKDQADISTSFSPSPLIRRPLTKSLIELAREHTEIVKEFGVLQEEDIEEEEEGEEGENGYDEKNHEDDFGLEDELIRPKVVKDIFQEDDDNDDSQAREDTFIRKRPKRRKVIRRLRDNDPETETAGFERDVHKELVKLKRRKVAEFLGSTSQISDTEFEHDPEASSGVVSSEQKPTAKRKGRKKYNLVSNNFRRLKLPKKNRFSNGRWGRR
,,,0.29,0.65,1.4,0.65,1.4,2.6,"GST-Dpb11-wild-type, P47027 K463E; K469E; R538E; K549E (protein) MKPFQGITFCPTAINNEILAKKISKKIIKLGGIFSKDLTRQVNVLVVGSTTNTNKFKFAVKHRFDIIFIDIQAIDDIYQLWLSGENILPDSNTATMTGSTYEMLKILYRRFSFKYLHNFNIFIGRITDTNITSIDSLVRSIKKLGCSSYNYQNFVIKDTSSHNDDDDQGQNGQISIFVTDTLLGARVNAAIEQNIPIVHFKWILDCQKRSALLPYDPYYLLPNIKDLPYDSIGSNSCDCWDKINTTFPTNIDAQSSLQRQQSSSTLTPSLPKTSSLLNKFKPKGEKIWDKAMSLQQHSKTNFSVLGQSPLSINNKQEDLSDNSTLIFKNCAFIIHHIFPGNHRSILTKIVVQNGGKIETSYLSGIYDHSYYIIPSNKALDSFNDLPEIIDDNDGIVTEFFIERCLYYQKLLHPIDLWSKPFLSTIEFQVSSSSKLLHHEFSSSPFLNVTITGFSGVELLHLTEVLNLLEPMGINYVEYLNKSTDILLINLAALPSIPKTHPLWSNEFSDLFTQFCINNNNDDPGDNNRKDFQNNSILENSMKRKIEYIEKFHSIPVVTPAFIFKLLSAASGENNEIFLNNIKWCIICPRGHKDDFKCKIKKPYYTSISSEKKYQN"
